Experimental data reported in patent US20190336529A1 (OSLO UNIVERSITETSSYKEHUS HF, published 2019).

How the values were obtained:
[1] = biological target: MART-1 peptide on HLA-A*02:01 (human); assay: CD107a by flow cytometry; sorted TCR+ CD8- T cells incubated for 5 hours with peptide-loaded T2 cells. The result sentence names SEQ ID NO: 56, but the method says the cells were loaded with the analogue SEQ ID NO: 80.; full-length, on cells
[2] = biological target: MART-1 26-35 peptide (SEQ ID NO: 56) presented by HLA-A2 on cells (human); assay: cell-based or functional assay
[3] = biological target: TGFβRII frameshift peptide p573 (SEQ ID NO: 1) presented by HLA-A2 on cells (human); assay: cell-based or functional assay

Molecule: DMF5
- EC50 of peptide [1]: 7 nM

Molecule: MART-1-specific TCR DMF5 (on the surface of transduced T-cells)
- EC50 of the peptide for CD107a staining of TCR+ CD8- T-cells after 5 hours with peptide-loaded HLA-A2+ T2 cells [2]: 7 nM

B1: Radium-1 TCR (full-length, on the surface of T-cells) (TCR, V domains shown)
V domain 1: GIQVEQSPPDLILQEGANSTLRCNFSDSVNNLQWFHQNPWGQLINLFYIPSGTKQNGRLSATTVATERYSLLYISSSQTTDSGVYFCAVNAGNMLTFGGGTRLMVKP
V domain 2: DVKVTQSSRYLVKRTGEKVFLECVQDMDHENMFWYRQDPGLGLRLIYFSYDVKMKEKGDIPEGYSVSREKKERFSLILESASTNQTSMYLCASSSGVTGELFFGEGSRLTVLE
- EC50 of the peptide for CD107a staining of TCR+ CD8- T-cells after 5 hours with peptide-loaded HLA-A2+ T2 cells [3]: 2 nM
